{"source": "patent US20200079833A1", "about": "(AstraZeneca / MedImmune, published 2020)", "binders": {"B1": {"name": "SEQ ID NO 79 (peptide)", "peptide": "H[Aib]EGS[αMeF]TSDV[αMeS]S[αMeF]LEGEAA[αMeK]K([γGlu-Palmitoyl])[αMeF]IA[αMeF]VV[αMeK]GG-NH2", "modifications": "N-terminus assumed", "SMILES": "CCCCCCCCCCCCCCCC(=O)N[C@@H](CCC(=O)NCCCC[C@H](NC(=O)[C@](C)(CCCCN)NC(=O)[C@H](C)NC(=O)[C@H](C)NC(=O)[C@H](CCC(=O)O)NC(=O)CNC(=O)[C@H](CCC(=O)O)NC(=O)[C@H](CC(C)C)NC(=O)[C@](C)(Cc1ccccc1)NC(=O)[C@H](CO)NC(=O)[C@](C)(CO)NC(=O)[C@@H](NC(=O)[C@H](CC(=O)O)NC(=O)[C@H](CO)NC(=O)[C@@H](NC(=O)[C@](C)(Cc1ccccc1)NC(=O)[C@H](CO)NC(=O)CNC(=O)[C@H](CCC(=O)O)NC(=O)C(C)(C)NC(=O)[C@@H](N)Cc1c[nH]cn1)[C@@H](C)O)C(C)C)C(=O)N[C@@](C)(Cc1ccccc1)C(=O)N[C@H](C(=O)N[C@@H](C)C(=O)N[C@@](C)(Cc1ccccc1)C(=O)N[C@H](C(=O)N[C@H](C(=O)N[C@@](C)(CCCCN)C(=O)NCC(=O)NCC(N)=O)C(C)C)C(C)C)[C@@H](C)CC)C(=O)O"}, "B2": {"name": "SEQ ID NO 80 (peptide)", "peptide": "H[Aib]EGS[αMeF]TSDV[αMeS]S[αMeF]LEGEAAK([γGlu-Palmitoyl])E[αMeF]IA[αMeF]VV[αMeK]GG-NH2", "modifications": "N-terminus assumed", "SMILES": "CCCCCCCCCCCCCCCC(=O)N[C@@H](CCC(=O)NCCCC[C@H](NC(=O)[C@H](C)NC(=O)[C@H](C)NC(=O)[C@H](CCC(=O)O)NC(=O)CNC(=O)[C@H](CCC(=O)O)NC(=O)[C@H](CC(C)C)NC(=O)[C@](C)(Cc1ccccc1)NC(=O)[C@H](CO)NC(=O)[C@](C)(CO)NC(=O)[C@@H](NC(=O)[C@H](CC(=O)O)NC(=O)[C@H](CO)NC(=O)[C@@H](NC(=O)[C@](C)(Cc1ccccc1)NC(=O)[C@H](CO)NC(=O)CNC(=O)[C@H](CCC(=O)O)NC(=O)C(C)(C)NC(=O)[C@@H](N)Cc1c[nH]cn1)[C@@H](C)O)C(C)C)C(=O)N[C@@H](CCC(=O)O)C(=O)N[C@@](C)(Cc1ccccc1)C(=O)N[C@H](C(=O)N[C@@H](C)C(=O)N[C@@](C)(Cc1ccccc1)C(=O)N[C@H](C(=O)N[C@H](C(=O)N[C@@](C)(CCCCN)C(=O)NCC(=O)NCC(N)=O)C(C)C)C(C)C)[C@@H](C)CC)C(=O)O"}, "B3": {"name": "SEQ ID NO 82 (peptide)", "peptide": "H[Aib]EGS[αMeF]TSDV[αMeS]S[αMeF]LEGEK([γGlu-Palmitoyl])A[αMeK]E[αMeF]IA[αMeF]VV[αMeK]GG-NH2", "modifications": "N-terminus assumed", "SMILES": "CCCCCCCCCCCCCCCC(=O)N[C@@H](CCC(=O)NCCCC[C@H](NC(=O)[C@H](CCC(=O)O)NC(=O)CNC(=O)[C@H](CCC(=O)O)NC(=O)[C@H](CC(C)C)NC(=O)[C@](C)(Cc1ccccc1)NC(=O)[C@H](CO)NC(=O)[C@](C)(CO)NC(=O)[C@@H](NC(=O)[C@H](CC(=O)O)NC(=O)[C@H](CO)NC(=O)[C@@H](NC(=O)[C@](C)(Cc1ccccc1)NC(=O)[C@H](CO)NC(=O)CNC(=O)[C@H](CCC(=O)O)NC(=O)C(C)(C)NC(=O)[C@@H](N)Cc1c[nH]cn1)[C@@H](C)O)C(C)C)C(=O)N[C@@H](C)C(=O)N[C@@](C)(CCCCN)C(=O)N[C@@H](CCC(=O)O)C(=O)N[C@@](C)(Cc1ccccc1)C(=O)N[C@H](C(=O)N[C@@H](C)C(=O)N[C@@](C)(Cc1ccccc1)C(=O)N[C@H](C(=O)N[C@H](C(=O)N[C@@](C)(CCCCN)C(=O)NCC(=O)NCC(N)=O)C(C)C)C(C)C)[C@@H](C)CC)C(=O)O"}, "B4": {"name": "SEQ ID NO 83 (peptide)", "peptide": "H[Aib]EGS[αMeF]TSDV[αMeS]S[αMeF]LEGK([γGlu-Palmitoyl])AA[αMeK]E[αMeF]IA[αMeF]VV[αMeK]GG-NH2", "modifications": "N-terminus assumed", "SMILES": "CCCCCCCCCCCCCCCC(=O)N[C@@H](CCC(=O)NCCCC[C@H](NC(=O)CNC(=O)[C@H](CCC(=O)O)NC(=O)[C@H](CC(C)C)NC(=O)[C@](C)(Cc1ccccc1)NC(=O)[C@H](CO)NC(=O)[C@](C)(CO)NC(=O)[C@@H](NC(=O)[C@H](CC(=O)O)NC(=O)[C@H](CO)NC(=O)[C@@H](NC(=O)[C@](C)(Cc1ccccc1)NC(=O)[C@H](CO)NC(=O)CNC(=O)[C@H](CCC(=O)O)NC(=O)C(C)(C)NC(=O)[C@@H](N)Cc1c[nH]cn1)[C@@H](C)O)C(C)C)C(=O)N[C@@H](C)C(=O)N[C@@H](C)C(=O)N[C@@](C)(CCCCN)C(=O)N[C@@H](CCC(=O)O)C(=O)N[C@@](C)(Cc1ccccc1)C(=O)N[C@H](C(=O)N[C@@H](C)C(=O)N[C@@](C)(Cc1ccccc1)C(=O)N[C@H](C(=O)N[C@H](C(=O)N[C@@](C)(CCCCN)C(=O)NCC(=O)NCC(N)=O)C(C)C)C(C)C)[C@@H](C)CC)C(=O)O"}, "B5": {"name": "SEQ ID NO 84 (peptide)", "peptide": "H[Aib]EGS[αMeF]TSDV[αMeS]S[αMeF]LEK([γGlu-Palmitoyl])EAA[αMeK]E[αMeF]IA[αMeF]VV[αMeK]GG-NH2", "modifications": "N-terminus assumed", "SMILES": "CCCCCCCCCCCCCCCC(=O)N[C@@H](CCC(=O)NCCCC[C@H](NC(=O)[C@H](CCC(=O)O)NC(=O)[C@H](CC(C)C)NC(=O)[C@](C)(Cc1ccccc1)NC(=O)[C@H](CO)NC(=O)[C@](C)(CO)NC(=O)[C@@H](NC(=O)[C@H](CC(=O)O)NC(=O)[C@H](CO)NC(=O)[C@@H](NC(=O)[C@](C)(Cc1ccccc1)NC(=O)[C@H](CO)NC(=O)CNC(=O)[C@H](CCC(=O)O)NC(=O)C(C)(C)NC(=O)[C@@H](N)Cc1c[nH]cn1)[C@@H](C)O)C(C)C)C(=O)N[C@@H](CCC(=O)O)C(=O)N[C@@H](C)C(=O)N[C@@H](C)C(=O)N[C@@](C)(CCCCN)C(=O)N[C@@H](CCC(=O)O)C(=O)N[C@@](C)(Cc1ccccc1)C(=O)N[C@H](C(=O)N[C@@H](C)C(=O)N[C@@](C)(Cc1ccccc1)C(=O)N[C@H](C(=O)N[C@H](C(=O)N[C@@](C)(CCCCN)C(=O)NCC(=O)NCC(N)=O)C(C)C)C(C)C)[C@@H](C)CC)C(=O)O"}, "B6": {"name": "SEQ ID NO 86 (peptide)", "peptide": "H[Aib]EGS[αMeF]TSDV[αMeS]S[αMeF]K([γGlu-Palmitoyl])EGEAA[αMeK]E[αMeF]IA[αMeF]VV[αMeK]GG-NH2", "modifications": "N-terminus assumed", "SMILES": "CCCCCCCCCCCCCCCC(=O)N[C@@H](CCC(=O)NCCCC[C@H](NC(=O)[C@](C)(Cc1ccccc1)NC(=O)[C@H](CO)NC(=O)[C@](C)(CO)NC(=O)[C@@H](NC(=O)[C@H](CC(=O)O)NC(=O)[C@H](CO)NC(=O)[C@@H](NC(=O)[C@](C)(Cc1ccccc1)NC(=O)[C@H](CO)NC(=O)CNC(=O)[C@H](CCC(=O)O)NC(=O)C(C)(C)NC(=O)[C@@H](N)Cc1c[nH]cn1)[C@@H](C)O)C(C)C)C(=O)N[C@@H](CCC(=O)O)C(=O)NCC(=O)N[C@@H](CCC(=O)O)C(=O)N[C@@H](C)C(=O)N[C@@H](C)C(=O)N[C@@](C)(CCCCN)C(=O)N[C@@H](CCC(=O)O)C(=O)N[C@@](C)(Cc1ccccc1)C(=O)N[C@H](C(=O)N[C@@H](C)C(=O)N[C@@](C)(Cc1ccccc1)C(=O)N[C@H](C(=O)N[C@H](C(=O)N[C@@](C)(CCCCN)C(=O)NCC(=O)NCC(N)=O)C(C)C)C(C)C)[C@@H](C)CC)C(=O)O"}, "B7": {"name": "SEQ ID NO 87 (peptide)", "peptide": "H[Aib]EGS[αMeF]TSDV[αMeS]SK([γGlu-Palmitoyl])LEGEAA[αMeK]E[αMeF]IA[αMeF]VV[αMeK]GG-NH2", "modifications": "N-terminus assumed", "SMILES": "CCCCCCCCCCCCCCCC(=O)N[C@@H](CCC(=O)NCCCC[C@H](NC(=O)[C@H](CO)NC(=O)[C@](C)(CO)NC(=O)[C@@H](NC(=O)[C@H](CC(=O)O)NC(=O)[C@H](CO)NC(=O)[C@@H](NC(=O)[C@](C)(Cc1ccccc1)NC(=O)[C@H](CO)NC(=O)CNC(=O)[C@H](CCC(=O)O)NC(=O)C(C)(C)NC(=O)[C@@H](N)Cc1c[nH]cn1)[C@@H](C)O)C(C)C)C(=O)N[C@@H](CC(C)C)C(=O)N[C@@H](CCC(=O)O)C(=O)NCC(=O)N[C@@H](CCC(=O)O)C(=O)N[C@@H](C)C(=O)N[C@@H](C)C(=O)N[C@@](C)(CCCCN)C(=O)N[C@@H](CCC(=O)O)C(=O)N[C@@](C)(Cc1ccccc1)C(=O)N[C@H](C(=O)N[C@@H](C)C(=O)N[C@@](C)(Cc1ccccc1)C(=O)N[C@H](C(=O)N[C@H](C(=O)N[C@@](C)(CCCCN)C(=O)NCC(=O)NCC(N)=O)C(C)C)C(C)C)[C@@H](C)CC)C(=O)O"}, "B8": {"name": "SEQ ID NO 88 (peptide)", "peptide": "HXEGSFTSDVSKFLEGEAAKEFIAFVVKGG", "modifications": "Aib2; α-MeF6; α-MeS11; K12(ε-γE-Palmitoyl); α-MeF13; α-MeK20; α-MeF22; α-MeF25; α-MeK28; C-terminal amide"}}, "note": "Starred links: 1 amine or outer side, 2 acyl side, 3 side chain; linkers in the order of their positions; H or OH if unused. Non-standard residues stand in square brackets, D forms with d. Groups on a side chain read outwards from the residue. No end group written: not given here. *: point of attachment. γGlu = O=C(O)[C@H](CCC(=O)[*:2])N[*:1]; Palmitoyl = CCCCCCCCCCCCCCCC(=O)*; αMeF = C[C@](N)(Cc1ccccc1)C(=O)O; αMeK = C[C@](N)(CCCCN)C(=O)O; αMeS = C[C@](N)(CO)C(=O)O; Aib = CC(C)(N)C(=O)O"}
{"biological_target": "T1, GLP-1R (INS1e assay) (UniProt P32301 22-463, limits assumed)", "T1 sequence (looked up)": "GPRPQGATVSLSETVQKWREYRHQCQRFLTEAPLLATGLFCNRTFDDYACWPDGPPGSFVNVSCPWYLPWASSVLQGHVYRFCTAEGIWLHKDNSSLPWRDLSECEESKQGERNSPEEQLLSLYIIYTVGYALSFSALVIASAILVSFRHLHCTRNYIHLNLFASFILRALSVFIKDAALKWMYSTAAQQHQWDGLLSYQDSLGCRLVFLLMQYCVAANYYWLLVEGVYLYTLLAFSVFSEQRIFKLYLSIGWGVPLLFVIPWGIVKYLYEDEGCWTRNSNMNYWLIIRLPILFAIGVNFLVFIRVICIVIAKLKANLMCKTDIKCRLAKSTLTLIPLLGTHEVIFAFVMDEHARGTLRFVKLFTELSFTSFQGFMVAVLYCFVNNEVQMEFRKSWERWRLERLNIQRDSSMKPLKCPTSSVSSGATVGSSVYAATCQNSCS", "experiment": "cell-based or functional assay", "units": {"INS1e assay EC50 GLP-1 R n1": "nM", "INS1e assay EC50 GLP-1 R n2": "nM", "INS1e assay EC50 Mean pM GLP-1R": "pM"}}
{"binder": "B1", "INS1e assay EC50 GLP-1 R n1": 0.289, "INS1e assay EC50 GLP-1 R n2": 0.527, "INS1e assay EC50 Mean pM GLP-1R": 408}
{"binder": "B2", "INS1e assay EC50 GLP-1 R n1": 3.89, "INS1e assay EC50 GLP-1 R n2": 1.33, "INS1e assay EC50 Mean pM GLP-1R": 2610}
{"binder": "B3", "INS1e assay EC50 GLP-1 R n1": 0.151, "INS1e assay EC50 GLP-1 R n2": 0.238, "INS1e assay EC50 Mean pM GLP-1R": 195}
{"binder": "B4", "INS1e assay EC50 GLP-1 R n1": 0.137, "INS1e assay EC50 GLP-1 R n2": 0.25, "INS1e assay EC50 Mean pM GLP-1R": 194}
{"binder": "B5", "INS1e assay EC50 GLP-1 R n1": 0.455, "INS1e assay EC50 GLP-1 R n2": 0.665, "INS1e assay EC50 Mean pM GLP-1R": 560}
{"binder": "B6", "INS1e assay EC50 GLP-1 R n1": 0.0453, "INS1e assay EC50 GLP-1 R n2": 0.0845, "INS1e assay EC50 Mean pM GLP-1R": 65}
{"binder": "B7", "INS1e assay EC50 GLP-1 R n1": 0.0436, "INS1e assay EC50 GLP-1 R n2": 0.0622, "INS1e assay EC50 Mean pM GLP-1R": 53}
{"binder": "B8", "INS1e assay EC50 GLP-1 R n1": 0.277, "INS1e assay EC50 GLP-1 R n2": 0.415, "INS1e assay EC50 Mean pM GLP-1R": 346}
